{"source": "the RNAGym collection of RNA variant scans (doi:10.1073/pnas.2313332121)", "parents": {"B1": {"name": "TPR t1 (parent)", "chain": "GACCAAUCUGCCCUCAGAGCUCGAGAACAUCUUCGGAUGCAGAGGAGGCAGGCUUCGGUGGCGCGAUAGCGCCAACGUCCUCAACCUCCAAUGCAUCCCACCACAUGAUGAUGCCUGAAGAGCCUUGGUUUUUUG"}}}
{"variants_of": "B1", "test": "polymerase ribozyme fitness, log enrichment relative to wild type (log ratio); higher = more active; in vitro selection for triplet polymerase activity", "method_in_brief": "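PCR was used to build mutant libraries for each subunit of a heterodimeric triplet polymerase ribozyme, which were then transcribed. A single in vitro selection round, in triplicate, used a frozen incubation at −7 °C and recovered extended constructs by gel excision, streptavidin beads and RT-PCR. Fitness is the logarithm of genotype enrichment relative to wild-type enrichment, averaged over replicates with inverse-variance weights. The logarithm is base 2, and after Illumina sequencing only genotypes with ≥10 input reads and ≥1 read per output were kept.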"}
{"variant": "GACCAAUCUGCCCUCAGAGCUCGAGAACAUCUUGGGAUGCAGUGGAGGCAGGCUUCGGUCGCGCGAUAGCGCCAACGUCCUAAACCUCCAAUGCAUCCCUCCACAUGAUGAUGUCUGAAGAGCCUUGGUCUAUCG", "polymerase ribozyme fitness (log ratio)": -5.7}
{"variant": "GAUCAAUCUGCCCUCAGAGCUCGAGAACAUCUUCGGAUGUAGAGGAGGCAGGCCUCGGUGGCGCGAUAGCGCCAACGUCCUCAACCUCCAAGGCAUCCCACCACAUGAUGAUGCCUGAAGAGCCUUGGUUUUUUG", "polymerase ribozyme fitness (log ratio)": -3.03}
{"variant": "GACCAAUCUGCCCUCAGAGCUCGAGAACAUCUUCGGAUGCAGAGGAGGCAGGCUUCGGUGGCGCGAUAGCGCCAACGUCCUCAACCUCCAAUGCAUGCCACCAUAUGAUGAUGCCUGAAGAGCCUUGGUUUUUUG", "polymerase ribozyme fitness (log ratio)": -3.29}
{"variant": "GACCAAUCUGCCCUCAGAGCUCGAGAACAUCUUCGGAUGCAGAGGAUGCAGGCUUCGGUGGCGCGAUAGCGCCAACGUCCUCAACCUCCAAUGUAUCCCACCACAGGAUGAUGCCUUAAAAGCCUUGGUUUUUUG", "polymerase ribozyme fitness (log ratio)": -5.71}
{"variant": "GACCAAUCUGCCAUCAGAGCUCGAGAACAUCUUCGGAUGCAGAGGAGGCAGGCUUCGGUGGCGCGAUAGCGCCAACGUGCUCAACCUCCAAUGCAUCCCACCACAUGAUGAUGCCUGAAGAGCCUUGGUUUUUUG", "polymerase ribozyme fitness (log ratio)": -3.47}
{"variant": "GACCAAUCUGCCCUCAGAGCUCGAGAACAUCUUCGGAUGCAGAGGAGGCAUGCUUCGGUGGCGCGAUAGCGCCAACGUCCUCAACCUCCAAUGCAUCCCACCACAUGAUGAUGCCUGAAGAGCCUUGGCUUUUUG", "polymerase ribozyme fitness (log ratio)": -4.13}
{"variant": "GACCAAUCUGCCCUCAGAGCUCGAGAACAUCUUCGGAUGCAGAAGAGGCAGGCUUAGGUGGCGCGAUAGCGCCAACGUCCUCAACCUCCAAUGCAUCCCACCACAUGAUGAUGCCUGAAGAGCCUUGGUUUUUUG", "polymerase ribozyme fitness (log ratio)": -1.33}
{"variant": "GACCAAUUUGCCCUCAGAGCUCGAGAACAUCUUCGGAUGCAGAGGGGCCAGGCUUCGGUGGCGCGAUAGCGGCAACGUCUUCAACCUCCAAUGCAUCCCACCACCUGAUGAUGCCUGAAGAACCUUGGUUUUUUG", "polymerase ribozyme fitness (log ratio)": -5.9}
{"variant": "GACCAAUCUGCCCUCAGAGCUCGAGAACAUCUUCGGAUGCAGAGGAGGCAGGCUUCGGUGGCGCGAUAACGCCAACGUCCUCAACCUCCAAUGCAUCCCACCACAUGAUGAUGGCUGAAGAGCCUUGGUUUUUUG", "polymerase ribozyme fitness (log ratio)": -4.69}
{"variant": "GUCCAAUCUGCCCUCAGAGCUCGAGAACAUCUUCGGAUGCAGAGGAGGCAGGCUUCGGUGGCGCGAUAGCGCCAACGUCCUCAACCUCCAAUGCAUCCCACCACAUGAUGAUGCCUGAAAAGCCUUGGUUUUUUG", "polymerase ribozyme fitness (log ratio)": -0.642}
{"variant": "GACCAAUCUGCCUUCAGAGCUCGAGAACAUCUUCGGAUGCAGAGGAGGCAGGCUUCGGUGGCGCGAUAGCGCCAACGUCCUCAACCUCCAAUGCAUCCCAACACAUGAUGAUGCCUGAAGAGCCUUGGUUUUUUG", "polymerase ribozyme fitness (log ratio)": -0.869}
{"variant": "GACCAAUCUGCCCUCAGAGCUCGAGAACAUCUUCGGAUGCAGAGGUGGCAGGCUUCGGUGGCGCGAUAGUGCCAACGUCCUCAACCUCCAAUGCAUCCCACCACAUGAUGAUGCCUGAAGAGCUUUGGUUUUUUG", "polymerase ribozyme fitness (log ratio)": -0.517}
{"variant": "GACCAAUCUGCCCUCAGAGCUCGAGAACAUCUUCGGAUGCAGAGGAGGCAAGCUUCGGUGGCGCGAUAGCGCCAACGUCCUAAACCUCCAAUGCAUCCCACCACAUGAUGAUGCCUGAAGAGCCUUGGUUUUUUG", "polymerase ribozyme fitness (log ratio)": -4.73}
{"variant": "GACCAAUCUGCCCUCAGAGCUCGAGAACAUCUUCGGAUGAAGAGGAGGCAGGCUUCGGUGGCGCGAUAGCGCUAACGUCCUCAACCUCCAAUGCAUCCCACCACAUGAUGAUGCCUGAAGAGCCUUGUUUUUUUG", "polymerase ribozyme fitness (log ratio)": -3.11}
{"variant": "GCCCAAUCUGCCCUCAGAGCUCGAGAACAUCUUCGGAUGCAGAGGAGGCAGGCUUCGGUGGCGCGAUAGCGCCAACGUCCUAAACCUCCAAUGCAUCCCACCACAUGAUGAUGCCUGAAGAGCCUUGGUUUUUUG", "polymerase ribozyme fitness (log ratio)": -2.04}
{"variant": "GACCAAUCUGCCCUCAGAGCUCGAGAACAUCUUCGGAUGCAGAGGAGGCAGGCUUCGGUGGCGCGAUAGCGCCAACGUCCUCAACCUCCAAUGCAUCCCACCACAUGAUGAAGCCUGAGGAGCCUUGGUUUUUUG", "polymerase ribozyme fitness (log ratio)": 1.9}
{"variant": "GACCAAUCUGCCCUCAGAGCUCGAGAACAUCUUCGGAUGCAUCGGAGGCAGGCUUCGGUGGCGCGAUAGCGCUAACGUCCUCAACCUCCAAUACAUCCCACCACAUGAUGAUGCCUGAAGAGCCUUGGUUUUUUG", "polymerase ribozyme fitness (log ratio)": -2.39}
{"variant": "GACCAAUCUGCUCUCAGAGCUCGAGAACAUCUUCGGAUGCAGAGGAGGCAGGCUUCGGUAGCGCGAUAGCGCCAACGUCCUCAACCUCCAAUGCAUCCCACCACAUGAUGAUGCCUGAAGAGCCUUGGUUUUUUG", "polymerase ribozyme fitness (log ratio)": -0.607}
{"variant": "GACCAAUCUGUCCUCAGAGCUCGAGAACAUCUUCGGAUGUAGAGGAGGCAGGCUUCGGUGGCGCGAUAGCGCCAACGUCCUCAACCUCCAAUGCAUCCCACCACAUGAUGAUGCCUGAAGAACCUUGGUUUUUUG", "polymerase ribozyme fitness (log ratio)": 0.00533}
{"variant": "GACCAAUCUGCCCUCAGAGCUCGAGAACAUCUUCGGAUGCAGAGGAGGCAGGCUUCGGUGGCGCGAUAGCGCCAACGUCCUCAACCUCCAAUGCAUCCCACCACAUGAUGAUGCCUGAAGAGCCUUGGUGUAUUG", "polymerase ribozyme fitness (log ratio)": -1.3}
{"variant": "GACCAAUCUGCCCUCAGAGCUCGAGAACAUCUUCGGAUGCAGAGAAGGCAGGCUUCGGAGGCGCGAUAGCGCCAACGUCCUCCACCUCCAAUGCAUCCCACCACAUGAUGAUGGCUGAAGACCCUUGGUUUUUUG", "polymerase ribozyme fitness (log ratio)": -4.2}
{"variant": "GACCAAUCUGCCCUCAGAGCUCGAGAACAUCUUCGGAUGCAGAGGAGGCAGGCUUCGGUAGCGCGAUAUCGCCAACGUCCUCAACCUCCAAUGCAUCCCACCACAUGAUGAUGCCUGAAGAGCCUUGGUUUUUUG", "polymerase ribozyme fitness (log ratio)": -0.576}
{"variant": "GACCAAUCUGCCCUCAGAGCUCGAGAACAUCUUCGGAUGCAGAGGAUGCAGGCUUCGGUGGCGCGAUAGCGCAAACGCCCUCAACCUUCAAUGCGUCCCACCACAUGAUGAUGCCUGAAGAGCCUUGGUUUUUUG", "polymerase ribozyme fitness (log ratio)": -4.73}
{"variant": "GACCAAUCUGCACUCAGAGCUCGAGUACAUCUUCGAAUGCAGAGGAGCCAGGCUUCGGUGGCGCGAUAGCGUCAACGUCCUCAACCUCCAAUGCAUCCCACCACAUGAUGAUGCCUGAAGAGCCUUGGUUUUUUG", "polymerase ribozyme fitness (log ratio)": -4.02}
{"variant": "GACCAAUCUGCCCUCAGAGCUCGAGAACAUCUUCGGAUACAGUGGAGGCAGGCUUCGGUGGCGCGAUAGCGCCAACGUCCUCAACCUCCAAUGCAUCCCACCACAUGAUGAUGCCUGAAGAGCCUUGGUUUUUUG", "polymerase ribozyme fitness (log ratio)": -1.78}
{"variant": "GACCAAUCUGCCCUCAGAGCUCGAGAACAUCUUCGGAUGCAGAGGAGGCAGGCUUCGGUGGCGCGAUAGCGCCAACGUCCUCAACCUCCAAUGCAUCCCACCACAUGAUGAGACCUGAAGAGCCCUGGUUUUUUG", "polymerase ribozyme fitness (log ratio)": -2.43}
{"variant": "GACCAACCUGCCCUCAGAGCUCGAGAACAUCUUCGGAUGCAGAGGAGGCAGGCUUCGGUGGCGCGAUACCGCCAACGUCCUCAACCUCCGAUGCAUCCCACCACAUGAUGAUCCCUGAAGAGCCUUGGUUUUUUG", "polymerase ribozyme fitness (log ratio)": -3.11}
{"variant": "GACCAAUCUGCCCUCAGACCUCGAGAACAUCUUCGGAUGCAGAGAAGGCAGGCUUCGGUAGCGCGAUAGCGCCAACGUCCUCAACCUCCAAUGCAUCCCACCACAAGAUGAUGCCUGAAGAGCCUUGGUUUUUUG", "polymerase ribozyme fitness (log ratio)": -4.35}
{"variant": "GACCAAUCUGCCCUCAGAGCUCGAGAACAUCUUCGGAUGCAGAGGAGGCAGGCUUCGGUGCCGCGAUAGCGCCAACGUCCUCAACCUCCAAUGCAUCCCAACACAUGAUGAGGCCUGAAGAGCCUUGGUUUUUUG", "polymerase ribozyme fitness (log ratio)": -3.98}
{"variant": "GACCAAUCUGCCCUCAGAGCUCGAGAACAUCUUCGGAUGCAGAGGAGGCAGGCUUCGGUGGCGCGAUAGCGCCAACCUCCUCAACCUCCAAUACAUCCCACCACAUGAUGAUGCCUGAAGAGCCUUGGUUUUUUG", "polymerase ribozyme fitness (log ratio)": -0.532}
{"variant": "GACCAAUCUGCCCUCAGAGCUCGAGAACAUCUUCGGAUGCAGAGGAGGCAGGCUUCGGUGGCGGGAUAGCGCCAACGUCCUCAACCUCCAAUGCAUCCCACCACAAGAUGAUGCCUGAAGAGCCUUGGUUUUUUG", "polymerase ribozyme fitness (log ratio)": -5.51}
{"variant": "GACCAAUCUGCCCUCAGAGCUCGAGAACAUCUUCGGAUGCAGAGGAGGCAAGCUUCCGCGGCGCGAUAGCGCCAACGUCCUCAACCUCCAAUGCAGCCCACCACAAGAUGAUGCCUGGAGAGCCUUGGUUUUUUG", "polymerase ribozyme fitness (log ratio)": -5.28}
{"variant": "GACCAAUCUGCCUUCAGAGUUCGAGAACAUCUUCGGAUGCAGAGGAGGCAGGCUUCGGUGGCGCGAUAGCGACAAAGUCCUCAACCUCCAAUGCAUCCCACCACAUGAUGAUGCCUGAAGAGCCUUGGUUUUUUG", "polymerase ribozyme fitness (log ratio)": -2.68}
{"variant": "GACCAAUCUGCUCUCAGAGCUCGAGAACAUCUUCGUAUGCAGAGGAUGCAGGCUUCGGUGGCGCGAUAGCGCCAACGUCCUCAACCUCCAAUGCAUCCCACCACAGGAUGAUGCCUGAAGAGCCUUGGUUUUUUG", "polymerase ribozyme fitness (log ratio)": -5.66}
{"variant": "GACCAAUCCGCCCUCAGAGCUCGAGAACAUCUUCGGAUGCAGAGGAGGCAGGCUUCGGUGGCGCGAUAUCUCCAACGUCCUCAACCUCCAAAGCAUCCCACCACAUGAUGAUGCCUGAAGAGCCUUGGUUUUUUG", "polymerase ribozyme fitness (log ratio)": -3.04}
{"variant": "GACCAAUCUGCCCUCAGAGCUCGAGAACAUCUUCGGAUGGAGAGGAGGCAGGCUUCGGUGGCGCGAUAGCGCCAACGUCCUCAACCUCCAAUGCAUCCCACCACAUGAUGAUGCCUGAAGAGCAUUGGUUUUUUG", "polymerase ribozyme fitness (log ratio)": 1.16}
{"variant": "GACCAAUCUGCCCUCAGAGCUCGAGAACAUCUUCGGAUGCAGAGAAGGCAGGCUUCGGUGGCGCGAUAUCGCCAACGUCCUCAACCUCCAAUGCAUCCCACCCCAUGAUGAUGCCUGAAGAGCCUUGGUUUUUUG", "polymerase ribozyme fitness (log ratio)": -2.35}
{"variant": "GACCAAUCUGCCCUCAGAGCUCGAGAACAUCUUCGGAUGCAGAGGAGGCAGGCUUCGGUGGAGCGAUAGCGCCAACGGCCUCAACCCCCAAUGCAUCCCACCACAUGAUGAUGCCUGAAGAGCCUUGGUUUUUUG", "polymerase ribozyme fitness (log ratio)": -1.47}
{"variant": "GACCAAUCUGCCCUCAGAGCUCGAGAACAUCUUCGGAUGCAGAGGAGUCAGGCUUCGGUGGCGCGAUAGUGCCAACGUCCUCAACCUCCAAUGCAUCCCACCACAUGAUGAUGACUGAAGAGCCUUGGUUUUUUG", "polymerase ribozyme fitness (log ratio)": -2.21}
{"variant": "GACCAAUCUGCCCUCAGAGCUGGAGAACAUCUUCGGAUGCACAGGAGGCAGGCUUCGGUGUCGCGAUAGCGCCAACGUCCUCAACCUCUAAUGCAUCCCACCACAUGAUGAUGCCUGAAGAGCCUUGGUUUUUUG", "polymerase ribozyme fitness (log ratio)": -5.61}
{"variant": "GACCAAUCUGCCCUCAGAGCUCGAGAACAUCUUCGGAUGCAGCGGUGGCAGGCUUCGGUGGCGCGAUAGCGCCAACGUCCUCAACCUCCAAUGCAUCCCAGCACAUGAUGAUGCCUGAAGAGUCUUGGUUUUUUG", "polymerase ribozyme fitness (log ratio)": -4.18}
{"variant": "GACCAAUCUGCCCUCAGAGCUCGAGAACAUCUUCGGAUGAAGAGUAGGCAGGCUUCGGUGGCGCGAUAGCGCCAACGUCCUCAACCUCCAAUGCAUCCCACCACAUGAUGAUGCCUGAAGAGCCUUGGUUUUUUG", "polymerase ribozyme fitness (log ratio)": -2.77}
